Legend:
[1] = molecular target: T1, Fibronectin (FN), full-length, isolated from human plasma (human, UniProt P02751-1); assay: microplate protein-binding assay
[2] = molecular target: T1, Fibronectin (FN), full-length, isolated …; assay: cross-linking
[3] = molecular target: T1, Fibronectin (FN), full-length, isolated …; assay: FN-fiber stretch assay

B1: short human tissue transglutaminase, aa 1-465 (short hrTG2, barrel 1 and 2 deletion mutant) (domain or fragment)
chain: MAEELVLERCDLELETNGRDHHTADLCREKLVVRRGQPFWLTLHFEGRNYEASVDSLTFSVVTGPAPSQEAGTKARFPLRDAVEEGDWTATVVDQQDCTLSLQLTTPANAPIGLYRLSLEASTGYQGSSFVLGHFILLFNAWCPADAVYLDSEEERQEYVLTQQGFIYQGSAKFIKNIPWNFGQFEDGILDICLILLDVNPKFLKNAGRDCSRRSSPVYVGRVVSGMVNCNDDQGVLLGRWDNNYGDGVSPMSWIGSVDILRRWKNHGCQRVKYGQCWVFAAVACTVLRCLGIPTRVVTNYNSAHDQNSNLLIEYFRNEFGEIQGDKSEMIWNFHCWVESWMTRPDLQPGYEGWQALDPTPQEKSEGTYCCGPVPVRAIKEGDLSTKYDAPFVFAEVNADVVDWIQQDDGSVHKSINRSLIVGLKISTKSVGRDEREDITHTYKYPEGSSEEREAFTRANHLNKL
modifications: Alexa Fluor 647 on primary amines
B1: binds [1].

B2: short human TG2 (aa 1-465) pre-incubated with the irreversible inhibitor Z006 (domain or fragment)
chain: B1 chain
B2: binds [1].

B3: human tissue transglutaminase (hrTG2, recombinantly produced in E.coli) (enzyme)
chain: MAEELVLERCDLELETNGRDHHTADLCREKLVVRRGQPFWLTLHFEGRNYEASVDSLTFSVVTGPAPSQEAGTKARFPLRDAVEEGDWTATVVDQQDCTLSLQLTTPANAPIGLYRLSLEASTGYQGSSFVLGHFILLFNAWCPADAVYLDSEEERQEYVLTQQGFIYQGSAKFIKNIPWNFGQFEDGILDICLILLDVNPKFLKNAGRDCSRRSSPVYVGRVVSGMVNCNDDQGVLLGRWDNNYGDGVSPMSWIGSVDILRRWKNHGCQRVKYGQCWVFAAVACTVLRCLGIPTRVVTNYNSAHDQNSNLLIEYFRNEFGEIQGDKSEMIWNFHCWVESWMTRPDLQPGYEGWQALDPTPQEKSEGTYCCGPVPVRAIKEGDLSTKYDAPFVFAEVNADVVDWIQQDDGSVHKSINRSLIVGLKISTKSVGRDEREDITHTYKYPEGSSEEREAFTRANHLNKLAEKEETGMAMRIRVGQSMNMGSDFDVFAHITNNTAEEYVCRLLLCARTVSYNGILGPECGTKYLLNLNLEPFSEKSVPLCILYEKYRDCLTESNLIKVRALLVEPVINSYLLAERDLYLENPEIKIRILGEPKQKRKLVAEVSLQNPLPVALEGCTFTVEGAGLTEEQKTVEIPDPVEAGEEVKVRMDLLPLHMGLHKLVVNFESDKLKAVKGFRNVIIGPA
modifications: Alexa Fluor 647 on primary amines (fiber stretch assay)
B3: binds [2].

B4: R1R2 peptide (collagen-mimicking peptide derived from the SFS FN-binding protein of Streptococcus equi) (peptide)
peptide: GLNGENQKEPEQGERGEAGPPLSGLSGNNQGRPSLPGLNGENQKEPEQGERGEAGPP
B4: binds [3].
